We go through two molecules from patent US20240207464A1 (NIHON MEDI PHYSICS, published 2024).

In this assay the target is T1, CD20 (human, UniProt P11836 1-297).
T1 construct: whole, on cells; also called CD20 on Ramos tumor sections (CD20-positive human Burkitt lymphoma-derived cell line)
T1 sequence (looked up): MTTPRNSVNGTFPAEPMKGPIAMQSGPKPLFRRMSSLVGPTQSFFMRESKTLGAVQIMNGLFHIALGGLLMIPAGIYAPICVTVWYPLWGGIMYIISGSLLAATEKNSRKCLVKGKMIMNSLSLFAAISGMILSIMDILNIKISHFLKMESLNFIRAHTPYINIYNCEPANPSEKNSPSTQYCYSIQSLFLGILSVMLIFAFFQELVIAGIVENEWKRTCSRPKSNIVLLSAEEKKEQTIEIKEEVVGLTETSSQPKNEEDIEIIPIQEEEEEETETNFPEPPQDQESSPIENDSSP
Description: in vitro autoradiography on frozen Ramos and CCRF-CEM tumor sections. As for the experimental part: Ramos cells of a CD20-positive human Burkitt lymphoma-derived cell line purchased from ATCC (American Type Culture Collection), and CCRF-CEM cells of a CD20-negative human acute lymphoblastic leukemia/T lymphocyte-like cell line were administered subcutaneously to the flanks of female BALB/c nu/nu mice (manufactured by Charles River Laboratories Japan, Inc.) at 5×10⁶ cells to prepare tumor-bearing mice. Thereafter, Ramos tumor and CCRF-CEM tumor were excised and embedded in Tissue-Tek O.C.T. Compound (Sakura Finetek Japan Co., Ltd.) to prepare frozen sections. The radioconjugates obtained in Example 1 and Comparative Example 1 were added to 1% bovine serum albumin-containing PBS each at 1 kBq/mL, and Ramos tumor section and CCRF-CEM tumor section were immersed therein. After contacting the sections with the imaging plate, they were read with a scanner-type image analyzer (Typhoon FLA 7000 manufactured by GE Healthcare Japan) to evaluate the level of radioactivity bound to the sections.

B1: radioconjugate (Example 3): conjugate with rituximab by using 89Zr-labeled DOTAGA-DBCO (antibody, human IgG1, kappa)
heavy: not shown
light: QIVLSQSPAILSASPGEKVTMTCRASSSVSYIHWFQQKPGSSPKPWIYATSNLASGVPVRFSGSGSGTSYSLTISRVEAEDAATYYCQQWTSNPPTFGGGTKLEIKRTVAAPSVFIFPPSDEQLKSGTASVVCLLNNFYPREAKVQWKVDNALQSGNSQESVTEQDSKDSTYSLSSTLTLSKADYEKHKVYACEVTHQGLSSPVTKSFNRGEC
peptide: not shown
modifications: lysine side chain modified with R1 (crosslinker, bonded to the antibody Fc); disulfide between the two cysteines; N-terminal ethyl azide via diglycolic acid and eight PEGs, clicked to DBCO of the 89Zr-DOTAGA-DBCO complex; Fc region site-specifically modified by the peptide of SEQ ID NO: 17 through the crosslinker on its lysine; the peptide carries 89Zr-chelated DOTAGA-DBCO through a click reaction
notes: also called 89Zr complex-labeled antibody
As for B1, the binding result is “binds”.

B2: radioconjugate (Comparative Example 2): conjugate with rituximab by using 89Zr-labeled DOTA-DBCO (antibody, human IgG1, kappa)
heavy: not shown
light: QIVLSQSPAILSASPGEKVTMTCRASSSVSYIHWFQQKPGSSPKPWIYATSNLASGVPVRFSGSGSGTSYSLTISRVEAEDAATYYCQQWTSNPPTFGGGTKLEIKRTVAAPSVFIFPPSDEQLKSGTASVVCLLNNFYPREAKVQWKVDNALQSGNSQESVTEQDSKDSTYSLSSTLTLSKADYEKHKVYACEVTHQGLSSPVTKSFNRGEC
peptide: not shown
modifications: lysine side chain modified with R1 (crosslinker, bonded to the antibody Fc); disulfide between the two cysteines; N-terminal ethyl azide via diglycolic acid and eight PEGs, clicked to DBCO of the 89Zr-DOTA-DBCO complex; Fc region site-specifically modified by the peptide of SEQ ID NO: 17 through the crosslinker on its lysine; the peptide carries 89Zr-chelated DOTA-DBCO through a click reaction
Take B2: the binding result is on record as “binds”.
